Experimental data published in article PMC3262814, “Purification and Activity Testing of the Full-Length YycFGHI Proteins of Staphylococcus aureus” (PLoS ONE, 2012).
Where “and” joins values, the source holds several entries; their conditions need not be identical. Identical values can stand only once.

Assays:
[1] = target: YycI-C-His6 (Staphylococcus aureus SA137/93A); experiment: native gel or EMSA; blue native PAGE (BN-PAGE) of single proteins; 4-20% Tris-HCl gradient gel; 5 µg of YycF, YycH, YycI or 10 µg of YycG, YycG(Y306N) in 10 µl dialysis buffer I (50 mM NaH2PO4, 300 mM NaCl, 50% glycerol, pH 8) with Coomassie Brilliant Blue R250; 80 V, 4-7°C; masses calibrated with soluble markers and a conversion factor
[2] = target: the molecule itself; experiment: as above

YycI-C-His6 (natural protein)
stoichiometry N [1]: < 6

B1: YycG-C-His6 (enzyme, Staphylococcus aureus SA137/93A)
chain: MGMKWLKQLQSLHTKLVIVYVLLIIIGMQIIGLYFTNNLEKELLDNFKKNITQYAKQLEISIEKVYDEKGSVNAQKDIQNLLSEYANRQEIGEIRFIDKDQIIIATTKQSNRSLINQKANDSSVQKALSLGQSNDHLILKDYGGGKDRVWVYNIPVKVDKKVIGNIYIESKINDVYNQLNNINQIFIVGTAISLLITVILGFFIARTITKPITDMRNQTVEMSRGNYTQRVKIYGNDEIGELALAFNNLSKRVQEAQANTESEKRRLDSVITHMSDGIIATDRRGRIRIVNDMALKMLGMAKEDIIGYYMLSVLSLEDEFKLEEIQENNDSFLLDLNEEEGLIARVNFSTIVQETGFVTGYIAVLHDVTEQQQVERERREFVANVSHELRTPLTSMNSYIEALEEGAWKDEELAPQFLSVTREETERMIRLVNDLLQLSKMDNESDQINKEIIDFNMFINKIINRHEMSAKDTTFIRDIPKKTIFTEFDPDKMTQVFDNVITNAMKYSRGDKRVEFHVKQNPLYNRMTIRIKDNGIGIPINKVDKIFDRFYRVDKARTRKMGGTGLGLAISKEIVEAHNGRIWANSVEGQGTSIFITLPCEVIEDGDWDE
notes: two additional residues (Met-Gly) at the N-terminus, from the NcoI site placed in frame; Cloned NcoI/XhoI into pET22bΔpelB; also called WalK; VicK; source: E. coli C41(DE3) or C43(DE3) pREP4groESL(MT), purified from the membrane fraction (DDM, Ni-NTA); not shown: His6, C-terminal, kept
stoichiometry N [2]: 2 and 3 and 4

B2: YycG(Y306N)-C-His6 (enzyme)
chain: MGMKWLKQLQSLHTKLVIVYVLLIIIGMQIIGLYFTNNLEKELLDNFKKNITQYAKQLEISIEKVYDEKGSVNAQKDIQNLLSEYANRQEIGEIRFIDKDQIIIATTKQSNRSLINQKANDSSVQKALSLGQSNDHLILKDYGGGKDRVWVYNIPVKVDKKVIGNIYIESKINDVYNQLNNINQIFIVGTAISLLITVILGFFIARTITKPITDMRNQTVEMSRGNYTQRVKIYGNDEIGELALAFNNLSKRVQEAQANTESEKRRLDSVITHMSDGIIATDRRGRIRIVNDMALKMLGMAKEDIIGNYMLSVLSLEDEFKLEEIQENNDSFLLDLNEEEGLIARVNFSTIVQETGFVTGYIAVLHDVTEQQQVERERREFVANVSHELRTPLTSMNSYIEALEEGAWKDEELAPQFLSVTREETERMIRLVNDLLQLSKMDNESDQINKEIIDFNMFINKIINRHEMSAKDTTFIRDIPKKTIFTEFDPDKMTQVFDNVITNAMKYSRGDKRVEFHVKQNPLYNRMTIRIKDNGIGIPINKVDKIFDRFYRVDKARTRKMGGTGLGLAISKEIVEAHNGRIWANSVEGQGTSIFITLPCEVIEDGDWDE
notes: two additional residues (Met-Gly) at the N-terminus, from the NcoI site placed in frame; YycG (WalK/VicK) sensor histidine kinase of Staphylococcus aureus with the exchange Y306N (nucleotide exchange T916A) in the cytoplasmic PAS domain; Cloned NcoI/XhoI into pET22bΔpelB; also called mutant kinase; mutated YycG kinase; source: E. coli C41(DE3) or C43(DE3) pREP4groESL(MT), purified from the …
stoichiometry N [2]: 2 and 3 and 4
